Here are results for 2 molecules from US10829756B2, “Discovery of enzymes from the alpha-keto acid decarboxylase family” (Regents of the University of California, priority 2015, dated 2020).

Data set [1] is described as follows: In vitro steady-state kinetics of purified 2-ketoacid decarboxylases (ADH/NADH-coupled), C8 substrate. It counts as biochemical. The conditions noted are these: kcat/KM on C8. The protocol: For the native KIVD and KIVD_VLV mutant, 2 ml overnight cultures of XL1B cells were transformed with pQE9 containing N-terminal his-tagged KIVD enzymes and grown in Terrific Broth (BP biomedical, Cat#3046-042) with 50 μg/mL of carbenicillin. (Fisher scientific, Cat# BP2648-5) For the GEOs, 2 ml overnight cultures of BLR cells were transformed with pet29b+ plasmid containing N-terminal his-tagged GEOs, and grown in Terrific Broth with 50 μg/mL of kanamycin. (Fisher scientific, Cat# BP906-5) These cultures were diluted 1:1000 in 500 mL of Terrific Broth with 1 mM MgSO4, 1% glucose, and 50ug/mL of corresponding antibiotics, then grown at 37° C. for 24 hours. […] Protein concentrations were determined using a Synergy H1 spectrophotometer (Biotek) by measuring absorbance at 280 nm using their calculated extinction coefficients with ExPASy ProtParam Tool.^33 All other buffers and salts were purchased from Fisher Scientific unless otherwise specified.
The kcat and KM values of selective KIVD mutants were measured for the substrates: C3, C5, isoC5, and C8. […] Activity was measured at 0.005 mM to 10 mM substrates. […] Absorbance readings were taken every 1-minute at OD340 at 21° C. for 60 minutes using the Synergy H1. Kinetic parameters (kcat and KM) were determined by fitting initial velocity versus substrate concentration data to the Michaelis-Menten equation.

In data set [2] the test system is synthetic recursive+1 pathway. The experiment in a line: In vivo alcohol production of the synthetic recursive+1 pathway (fermentation, GC-FID). It counts as cell-based, E. coli. The conditions noted are these: for 1-Butanol production / 1-Ethanol production / 1-Heptanol production / 1-Hexanol production / 1-Octanol production / 1-Pentanol production / 1-Propanol production: forty hours, microaerobic, defined media. The protocol:
The measured specificity and activity for each enzyme was used to select two candidates for further characterization of their ability to modulate alcohol production in vivo. The two enzymes with the highest activity and specificity (FIG. 4), KIVD_VLV and GEO 175, were tested for their ability to reprogram the synthetic recursive+1 pathway to produce long-chain alcohol products in vivo. The alcohol-producing biochemical pathway was adapted from a previous study used to synthesize alcohols of various lengths.^3,4 Starting from glucose, the aforementioned+1 pathway, involving LeuABCD, recursively elongates 2-ketoacids, starting with 2-ketobutyrate, into longer chained 2-ketoacids. These 2-ketoacids are then converted to aldehydes by ketoacid decarboxylases (native KIVD, KIVD_VLV, and GEO 175) and subsequently to alcohols by an alcohol dehydrogenase. Carbon flux through this alcohol synthesizing biochemical pathway is enhanced by overexpressing thrABC, ilvA, LeuABCD, and ADH6 on inducible plasmids transformed into E. coli.^3 The effects of overexpression were furthermore supported and maintained by knocking out the threonine exporter enzyme RhtA and the primary DNA recombination degradation enzyme RecA. The enzyme AdhE was also knocked out, which helps raise long chain alcohol production by eliminating a competing pathway where acetyl-CoA is directly converted to ethanol.^19
Genes were removed from the ATCC 98082 ΔrhtA strain genome using P1 transduction from the Keio collection as previously.^32 The aldehyde-alcohol dehydrogenase gene (adhE) was knocked out to eliminate ethanol production from acetyl-coA. In all strains, recA was knocked out to prevent recombination between the genome and plasmids, thereby stabilizing the transformants. Primers used to target recA for knockout were designed based on the Keio collection (Genobase, ecoli.aist-nara.ac.jp) and ordered from Integrated DNA Technologies.
For n-alcohol production, strains of ST128 were transformed with pZS_thrO, pZAlac_ilvABSleuA, and pZE_LeuA*BCDK*A6 containing various kivd mutations. Fermentation conditions were adapted from those in previous works,^3,4 with the following changes: 20 mL of medium was used, with 100 μg/mL ampicillin, […] kanamycin, and 100 μg/mL spectinomycin added. Cells were grown to an optical density at 600 nm of ˜0.6, followed by induction with 0.1 mM isopropyl-b-D-thiogalactoside (IPTG). After fermentation, cells were centrifuged for 15 minutes at 4000×g and 4° C. The supernatant was split into two fractions for analysis, 5 mL for short chain alcohols (ethanol, 1-propanol, and 1-butanol), and 15 mL for long chain alcohols (1-pentanol, 1-hexanol, 1-heptanol, and 1-octanol). Long chain alcohols were extracted from the 15 mL fraction by 3 mL n-hexane prior to analysis. GC-FID analysis was performed as previously described.^4

Several values for one entry are separate records, joined by “and”; a condition that tells them apart may be missing. Equal values may be shown once.

B1: GEO175: native enzyme from Streptomyces sp. C, predicted protein with no known function, 2-ketoacid decarboxylase, SEQ ID NO:2 (protein)
chain: MRTVRESALDVLRARGMTTVFGNPGSTELPMLKQFPDDFRYVLGLQEAVVVGMADGFALASGTTGLVNLHTGPGTGNAMGAILNARANRTPMVVTAGQQVRAMLTMEALLTNPQSTLLPQPAVKWAYEPPRAADVAPALARAVQVAETPPQGPVFVSLPMDDFDVVLGEDEDRAAQRAAARTVTHAAAPSAEVVRRLAARLSGARSAVLVAGNDVDASGAWDAVVELAERTGLPVWSAPTEGRVAFPKSHPQYRGMLPPAIAPLSRCLEGHDLVLVIGAPVFCYYPYVPGAHLPENTELVHLTRDADEAARAPVGDAVVADLALTVRALLAELPAREAAAPAARTARAESTAEVDGVLTPLAAMTAIAQGAPANTLWVNESPSNLGQFHDATRIDTPGSFLFTAGGGLGFGLAAAVGAQLGAPDRPVVCVIGDGSTHYAVQALWTAAAYKVPVTFVVLSNQRYAILQWFAQVEGAQGAPGLDIPGLDIAAVATGYGVRAHRATGFGELSKLVRESALQQDGPVLIDVPVTTELPTL
modifications: Streptomyces sp. C
For B1, in data set [1], the “catalytic efficiency on C8 lower than native KIVD” value was determined as 2 fold. Also, in data set [2], the “drop of overall alcohol production from that obtained with KIVD” value is ~10 fold; the “heptanol share of alcohol production” value is 50%; the “hexanol share of alcohol production” value was 29%; the major alcohol product result was “heptanol (C7) and 1-heptanol”. In addition, in data set [2], the “pentanol share of alcohol production” value is given as 16%, the 1-Butanol production amounted to 19 mg/L, the 1-Ethanol production result is “no ethanol or propanol production is observed” and the 1-Heptanol production is given as 274 mg/L. Moreover, in data set [2], the 1-Hexanol production was found to be 160 mg/L, the 1-Octanol production came to 10 mg/L, the 1-Pentanol production is recorded as 88 mg/L and the 1-Propanol production result is on record as “no ethanol or propanol production is observed”. In data set [2] (listed as GEO 175), the 1-Butanol production is 19 ± 2 mg/L, the 1-Heptanol production turned out to be 274 ± 19 mg/L, the 1-Hexanol production was found to be 160 ± 18 mg/L and the 1-Octanol production is listed as 10 ± 1 mg/L. Further, the 1-Pentanol production in data set [2] (listed as GEO 175) was 88 ± 12 mg/L. In addition, the “long chain (≥C5) alcohols produced” value in data set [2] (sum of long chain alcohols) turned out to be 522 mg/L.

B2: Native KIVD: ketoisovalerate decarboxylase used in the current synthetic recursive+1 pathway, SEQ ID NO:1 (protein, listed as Lactococcus lactis)
chain: MYTVGDYLLDRLHELGIEEIFGVPGDYNLQFLDQIISRKDMKWVGNANELNASYMADGYARTKKAAAFLTTFGVGELSAVNGLAGSYAENLPVVEIVGSPTSKVQNEGKFVHHTLADGDFKHFMKMHEPVTAARTLLTAENATVEIDRVLSALLKERKPVYINLPVDVAAAKAEKPSLPLKKENSTSNTSDQEILNKIQESLKNAKKPIVITGHEIISFGLEKTVSQFISKTKLPITTLNFGKSSVDEALPSFLGIYNGKLSEPNLKEFVESADFILMLGVKLTDSSTGAFTHHLNENKMISLNIDEGKIFNESIQNFDFESLISSLLDLSEIEYKGKYIDKKQEDFVPSNALLSQDRLWQAVENLTQSNETIVAEQGTSFFGASSIFLKPKSHFIGQPLWGSIGYTFPAALGSQIADKESRHLLFIGDGSLQLTVQELGLAIREKINPICFIINNDGYTVEREIHGPNQSYNDIPMWNYSKLPESFGATEERVVSKIVRTENEFVSVMKEAQADPNRMYWIELILAKEDAPKVLKKMGKLFAEQNKS
As to B2, in data set [2], the overall alcohol production amounted to 4.0 g/L, the “short alcohols (C2-C4) share of total alcohol production” value came out at 82%, the 1-Butanol production amounted to 1964 ± 24 mg/L and the 1-Ethanol production is reported as 652 ± 32 mg/L. In data set [2], the 1-Heptanol production amounted to 20 ± 3 mg/L, the 1-Hexanol production worked out at 75 ± 6 mg/L, the 1-Octanol production result was “not observed” and the 1-Pentanol production is recorded as 594 ± 20 mg/L. For the same molecule, the 1-Propanol production in data set [2] amounted to 693 ± 4 mg/L.
